# Measured values taken from patent US20250215071A1, “Novel Mcl-1 inhibitor and combination of Mcl-1 and a BH3 mimetic, such as a Bcl-2 inhibitor” (NETRIS PHARMA, priority 2022, published 2025).
# Test system: human Mcl-1
# Experiment: In vivo Mcl-1 degradation in EMT6 syngeneic breast cancer model (western blot)
# Conditions: EMT6 cells over-expressing human Mcl-1 in BALB/c mice; 20 mg/Kg i.v.; 8 hours after treatment; vs control mice (Iso-mAb)
# Procedure: FIG. 7. Netrin-1 interference triggers Mcl-1 degradation in vitro and in vivo. (A,B): Netrin-1 silencing triggers Mcl-1 degradation. Breast cancer MCF7 cells were transfected with scramble (siCTRL) or netrin-1 (siNet) targeting siRNAs. 48 hours after transfection, cells were lysed by scraping and sonication in SDS-containing buffer. Protein levels of Mcl-1, netrin-1, and UNC5B, as well as B-actin and Ku80, used as housekeeping genes, were evaluated by western blot (A). Relative Mcl-1 protein levels, normalized to β-actin or Ku80, are shown in (B) (n=2, *** p<0.001, **** p<0.0001, ordinary two-way ANOVA with Sidak's multiple comparisons test). […] Protein levels of Mcl-1 were then evaluated by western blot (C). […] Mcl-1 protein was quantified in paraffin-embedded slices on paired C1D1 and C3D1 biopsies and compared with clinical benefit (stable disease, SD, or progression disease, PD, at 6 weeks). Mcl-1 intensity was assessed in all, PD or SD biopsies (E) (n=6, Wilcoxon test). […]
# For immunoblotting analysis, cells were lysed by sonication in SDS buffer (10 mM Tris-HCl pH 7.4, 10% glycerol, 5% SDS, 1% TX-100, 100 mM DTT) in the presence of protease inhibitor cocktail (Roche Applied Science). […] Protein band quantification was performed with Image Lab 6.1 software (Bio-rad), considering the adjusted volume intensity normalized with housekeeping genes. […]
molecule,measurement,value
"NP137: humanized anti-netrin-1 monoclonal antibody, VH SEQ ID NO: 22, VL SEQ ID NO: 16, human IgG1 (antibody, V domains shown, human IgG1 constant region; humanized variant; MISC_FEATURE - CDR according to IGMT) VH: QVQLQQSGPGLVKPSQTLSLTCAISGYTFTSYNMHWVRQATGQGLEWMGAIYPGNGDTSYNQKFKGRLTISKDTSKNQVVLTMTNMDPVDTATYYCARGGTGFAYWGQG VL: DIQMTQSPSSLSASVGDRVTITCKASQSVSNDVAWYQQKPGQAPRLLIYYASNRYTGIPPRFSGSGYGTDFTLTINNIESEDAAYYFCQQDYSSPWTFGQG",Mcl-1 protein levels in tumors,significantly reduced Mcl-1 protein levels
